US7285618 (JAPAN TOBACCO, dated 2007)

Target: G protein (Gi) purified from rabbit liver (rabbit)
Assay: cell-based or functional assay

GTPase activity of Gi: ~6 fold
B1: cytochrome C oxidase subunit peptide-1 (COSP-1) (peptide)
peptide: LSFLIPAGWVLSHLDHYKRSSAA
